Reference: PMC11939848, “Aptamer-Based Graphene Field-Effect Transistor Biosensor for Cytokine Detection in Undiluted Physiological Media for Cervical Carcinoma Diagnosis”

Experiments:
IL-6 [1] = molecular target: T1, IL-6 (UniProt P05231 30-212); test: graphene FET (Hill-Langmuir fit); 1000 Da PEG, undiluted lavage fluid; 1x PBS, artificial sweat (10x diluted or undiluted) or undiluted lavage fluid; aptamer immobilized on graphene; pH and temperature not stated; conditions: protein: commercial
T1 sequence (P05231 30-212): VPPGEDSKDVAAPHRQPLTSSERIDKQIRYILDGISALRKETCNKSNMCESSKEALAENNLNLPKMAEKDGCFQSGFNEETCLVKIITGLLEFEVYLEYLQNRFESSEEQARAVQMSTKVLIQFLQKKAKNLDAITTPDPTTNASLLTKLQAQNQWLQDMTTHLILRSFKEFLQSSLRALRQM

IL-6 [2] = molecular target: T1, IL-6; test: graphene FET (Hill-Langmuir fit); 2000 Da PEG, undiluted lavage fluid; 1x PBS, artificial sweat (10x diluted or undiluted) or undiluted lavage fluid; aptamer immobilized on graphene; pH and temperature not stated; conditions: protein: commercial
IL-6 [3] = molecular target: T1, IL-6; test: graphene FET (Hill-Langmuir fit); 2000 Da PEG, PBS; 1x PBS, artificial sweat (10x diluted or undiluted) or undiluted lavage fluid; aptamer immobilized on graphene; pH and temperature not stated; conditions: protein: commercial
IL-6 [4] = molecular target: T1, IL-6; test: graphene FET (Hill-Langmuir fit); 1000 Da PEG, PBS; 1x PBS, artificial sweat (10x diluted or undiluted) or undiluted lavage fluid; aptamer immobilized on graphene; pH and temperature not stated; conditions: protein: commercial
TNF-alpha [5] = molecular target: T2, TNF-alpha (UniProt P01375 77-233); test: graphene FET (Hill-Langmuir fit); 1000 Da PEG, 1x PBS; 1x PBS, artificial sweat (10x diluted or undiluted) or undiluted lavage fluid; aptamer immobilized on graphene; pH and temperature not stated; conditions: protein: commercial; chain copies: 3; G-quadruplex, two G-tetrads
T2 sequence (P01375 77-233): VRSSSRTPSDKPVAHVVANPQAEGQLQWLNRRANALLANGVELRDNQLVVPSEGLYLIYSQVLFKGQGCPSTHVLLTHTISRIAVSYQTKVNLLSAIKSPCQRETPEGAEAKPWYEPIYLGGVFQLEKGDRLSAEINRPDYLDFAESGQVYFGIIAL

TNF-alpha [6] = molecular target: T2, TNF-alpha; test: graphene FET (Hill-Langmuir fit); 2000 Da PEG, 1x PBS; 1x PBS, artificial sweat (10x diluted or undiluted) or undiluted lavage fluid; aptamer immobilized on graphene; pH and temperature not stated; conditions: protein: commercial; chain copies: 3; G-quadruplex, two G-tetrads
TNF-alpha [7] = molecular target: T2, TNF-alpha; test: graphene FET (Hill-Langmuir fit); no PEG, 1x PBS; 1x PBS, artificial sweat (10x diluted or undiluted) or undiluted lavage fluid; aptamer immobilized on graphene; pH and temperature not stated; conditions: protein: commercial; chain copies: 3; G-quadruplex, two G-tetrads

Row | Binder | Kd (IL-6 [1]) [nM] | Kd (IL-6 [2]) [nM] | Kd (IL-6 [3]) [nM] | Kd (IL-6 [4]) [nM] | Kd (TNF-alpha [5]) [nM] | Kd (TNF-alpha [6]) [nM] | Kd (TNF-alpha [7]) [nM]
1 | GGTGGCAGGAGGACTATTTATTTGCTTTTCT (ssDNA, 5'-NH2) [IL-6 aptamer] | 0.57 ± 0.096 | 0.194 ± 0.023 | 0.188 ± 0.052 | 0.084 ± 0.023 |  |  | 
2 | TGGTGGATGGCGCAGTCGGCGACAA (ssDNA, 5'-NH2) [TNF-alpha aptamer] |  |  |  |  | 1.52 ± 0.35 | 1.21 ± 0.44 | 2.82 ± 0.19
